Reference: IntAct's records for PubMed 17954914

B1: Calcipressin-like protein (Saccharomyces cerevisiae), P36054 (parent)
chain: MGNIITDTIIITSDKCDIVDNDNVERIQVWLSKNILRKFQINENEPLQLIILKRFKRILLICPSHDISQHVMDASRALEMENFNFSYSLQDGQRNLTKQYLKVPESEKMFLISPPASPPPEFDFSKCEDAPQRHIQSHIQQDQQQRLEASQLLPNNPDKNNNGTFTLLKSKVGAITIDRCPTNDGNGQMQLADHVKTAFPPKSIFDTDDDD
partner: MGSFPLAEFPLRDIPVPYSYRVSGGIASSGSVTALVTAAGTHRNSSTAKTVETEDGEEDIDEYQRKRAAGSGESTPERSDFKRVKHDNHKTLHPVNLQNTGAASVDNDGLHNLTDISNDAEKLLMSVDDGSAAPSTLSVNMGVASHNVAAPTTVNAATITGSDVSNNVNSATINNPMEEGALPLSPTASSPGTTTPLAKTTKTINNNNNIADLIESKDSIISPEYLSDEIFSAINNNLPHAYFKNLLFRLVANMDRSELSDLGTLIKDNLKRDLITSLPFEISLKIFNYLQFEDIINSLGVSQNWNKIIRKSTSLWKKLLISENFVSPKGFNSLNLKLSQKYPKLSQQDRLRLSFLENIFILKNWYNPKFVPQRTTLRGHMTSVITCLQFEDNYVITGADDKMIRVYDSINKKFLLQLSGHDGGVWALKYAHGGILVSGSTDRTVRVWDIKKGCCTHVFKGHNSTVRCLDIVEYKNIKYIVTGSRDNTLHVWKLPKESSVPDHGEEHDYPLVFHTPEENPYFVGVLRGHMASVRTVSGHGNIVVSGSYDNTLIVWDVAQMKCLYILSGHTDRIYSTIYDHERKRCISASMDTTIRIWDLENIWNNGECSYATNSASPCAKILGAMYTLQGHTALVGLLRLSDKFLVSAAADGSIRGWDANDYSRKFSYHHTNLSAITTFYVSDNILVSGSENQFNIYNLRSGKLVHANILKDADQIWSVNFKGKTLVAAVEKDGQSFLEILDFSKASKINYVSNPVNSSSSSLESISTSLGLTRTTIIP

Variants of: B1
Details: with cdc4_yeast CDC4, P07834

effect of a mutation on the interaction	Variant
disrupting interaction	MGNIITDTIIITSDKCDIVDNDNVERIQVWLSKNILRKFQINENEPLQLIILKRFKRILLICPSHDISQHVMDASRALEMENFNFSYSLQDGQRNLTKQYLKVPESEKMFLIAPPASPPPEFDFSKCEDAPQRHIQSHIQQDQQQRLEASQLLPNNPDKNNNGTFTLLKSKVGAITIDRCPTNDGNGQMQLADHVKTAFPPKSIFDTDDDD [S113A]
disrupting interaction	MGNIITDTIIITSDKCDIVDNDNVERIQVWLSKNILRKFQINENEPLQLIILKRFKRILLICPSHDISQHVMDASRALEMENFNFSYSLQDGQRNLTKQYLKVPESEKMFLISPPAAPPPEFDFSKCEDAPQRHIQSHIQQDQQQRLEASQLLPNNPDKNNNGTFTLLKSKVGAITIDRCPTNDGNGQMQLADHVKTAFPPKSIFDTDDDD [S117A]
disrupting interaction strength	MGNIITDTIIITSDKCDIVDNDNVERIQVWLSKNILRKFQINENEPLQLIILKRFKRILLICPSHDISQHVMDASRALEMENFNFSYSLQDGQRNLTKQYLKVPESEKMFLIAPPAAPPPEFDFSKCEDAPQRHIQSHIQQDQQQRLEASQLLPNNPDKNNNGTFTLLKSKVGAITIDRCPTNDGNGQMQLADHVKTAFPPKSIFDTDDDD [S113A;S117A]
